Test results published in doi:10.1101/2024.02.27.582368 (bioRxiv, 2024).

How the values were obtained:
[1] = molecular target: BC1280 (CapP, CalY-assisting polymerization protein), full-length recombinant protein (Bacillus cereus ATCC14579) (UniProt Q81GC7); assay: native gel or EMSA
native gel or EMSA = molecular target: the molecule itself; assay: native gel or EMSA

| Molecule | stoichiometry N [1] [subunits] | stoichiometry N (native gel or EMSA) [subunits] |
| --- | --- | --- |
| BC1280 (CapP, CalY-assisting polymerization protein), full-length recombinant protein (from UniProt Q81GC7 1-279) (natural protein) | 15 |  |
| N-domain39-190 of BC1280 (domain or fragment, Bacillus cereus ATCC14579, UniProt Q81GC7 39-190, looked up) AAFIHETKVEATLSTAIIFPKTVNTLKEQSEKHKQFIEREYGTMKGKLKATSIEEIKQAISVWQQGREKIVAEKEALQNVYTEIEAPYNQIQEELKVNKDESMQQVSIYVNEGFRSIKEKRDYIEKEISLKAIDEQIQALQQQLNVAIEAEG |  | ~15 |
